Results as given in the DeepSol protein solubility set.

Assay: soluble on expression in E. coli; label from the status in PepcDB or PDB records
In the case of “MGSDKIHHHHHHMTQPQMIHPGETPEQHAAFQARIARGEKIEPGDWMPAEYRRQLIRMISQHAHSEVVGMLPEGEWITRAPTLKRKTILIAKVQDEAGHGQYLYHAAETLGVTREEMLDALLSGKAKYSSIFNYPSLTWADVGMIGWLVDGAAIKNQTMLAGCSYGPYSRAMVRICSEETFHHKQGKEMIVAYAQGTPEQKQMAQDALNRWWWPALMMLGPHDADSPNTGALVQWGIKLKTNDEVRQEFINEHVPELLEAGLTIPDPDLHQDEQGNWIHGPINWDEFWAVVKGQQGLHRERLGTRQQAHEEGAWVREAVQAYAARQLGQAAD”, the “soluble on expression in E. coli” value was “not soluble”.
With “MATEAPTQSYSEQWYWDDRYKNESEPFDWYQKYSPLAPLINLYVPQRNQRVLVIGCGNSAFSEGMVDDGYEDVVSIDISSVVIDTMIKKYSDRPQLKYLKMDVRDMKAFEDASFDAVIDKGTLDSILCGSNSRQYSTQMLEEVWRVLKDKGVYILITYGAPIYRLRLFKESCSWTTKLHVIDKSLTDQPLDTPKWELTKPLPLDADGSSVESAIGKNPDVHYIYVCIKDESSKMEADAA” the “soluble on expression in E. coli” value was “soluble”.
For “MGHHHHHHSHMEIPPTNYPASRAALVAQNYINYQQGTPHRVFEVQKVKQASMEDIPGRGHKYHLKFAVEEIIQKQVKVNCTAEVLYPSTGQETAPEVNFTFEGETGKNPDEEDNTFYQRLKSMKEPLEAQNIPDNFGNVSPEMTLVLHLAWVACGYIIWQNSTEDTWYKMVKIQTVKQVQRNDDFIELDYTILLHNIASQEIIPWQMQVLWHPQYGTKVKHNSRLPKEVQLE”, the “soluble on expression in E. coli” value was “not soluble”.
In the case of “MGSDKIHHHHHHMKKIQLTNAHKEKLFQIPLFRDLPLNIKESLLDKLDFVIYAADKKEIVVTQGTPCNKLYVLLEGKLRTDIIDGLGNEVMIEYIIAPRTFATPHLFNSNNTLPATFTALEDSVVLMATKDSTFKVISQDPQVLHNFLCIAGNCNICTVSRLKPLSRKTVRERFIVYLFEHKKKDSLTVEIMHTQSQLAEYLNVSRPALSKEINKIIKEGLITMEGKKIEILNKMALEKYL”, the “soluble on expression in E. coli” value was “not soluble”.
In the case of “MGSDKIHHHHHHMKPRNESVILLHGLARTRGSMEKMEHALSAKGYQCVNLGYPSTQFDIETLAGEHIDKALSQCRGERVHFVTHSMGGILVRQYLSQHTLPALGRVVMLGPPNRGSEVVDSLKDFPGFKWINGPAGLQLGTEEESVPNRLGKAHFEVGVIAGSRSVNLLLSTLLPWPNDGKVSVARTHLEGMRDHISLAVTHPFMMNNPSVIAQTAYFLAHGRFQR”, the “soluble on expression in E. coli” value was “not soluble”.
In the case of “MAHHHHHHMTDMHTTLSRVILVAMLHDVADHKYDSDGTLRHRVEAFIKEERNATIETAESHAYALQTIEAVSFSAEKQRGKRWFTSVLPTEWLRVRDIVSDADKLEAIGYAGLLRCLEYTSHLLLPRGKTTEGEQHMKEGGEGRPHWSREFERQCLQNVREHFEEKLNLLPTEYIVTEPGRFLALPRRAEMVEALHQWEENGLPPLS”, the “soluble on expression in E. coli” value was “not soluble”.
For “SLLPDIPEPLKNGTGAIDNNGVIYVGLGTAGTSWYKIDLKKQHKDWERIKSFPGGAREQSVSVFLNDELYVFGGVGKKNSESPLQVYSDVYKYSPVKNTWQKVDTISPVGLTGHTGVKLNETMVLITGGVNEHIFDKYFIDIAAAAADESEKNKVIYNYFNKPAKDYFFNKIVFIYNAKENTWKNAGELPGAGTAGSSSVMGNNFLMLINGELKPGLRTDVIYRAMWDNDKLTWLKNSQLPPSPGEQQQEGLAGAFSGYSHGVLLVGGGANFPGAKQNYTNGKFYSHEGINKKWRDEVYGLINGHWQYMGKMKQPLGYGVSVSYGDEVFLIGGENAKGKPVSSVTSFTMRDGNLLIK”, the “soluble on expression in E. coli” value was “not soluble”.
With “MYKIVNNDQNKRLVIAKSKAQSLRKTFLHSCLPKMPLSQPWSHSFEICQEHNTQKRISYSRLHRSIGRLRVFLTDDNSILKSTNKFIKILIQQIAFHNLFRWYCRWNDEFQVDEHLDHFCRKDKAQEVFNVSWLVLKFNVFKLYTQKFLYTYSFITIFRLSFRFPTTFRSIF” the “soluble on expression in E. coli” value was “not soluble”.
In the case of “MYDTEIPYEGKISIYTYFCKECGYRKTEVYSDEKRDPKKITIRIENPDDLRIIVYRSRRADVYIPEMEASIDSAEYSNGEITTIEGIIYRIGEKLDLLAADDQNNKKIASLRKRIDGIINGKFESFTLIIMDESGKSVVHSDKAMVESMD”, the “soluble on expression in E. coli” value was “soluble”.
With “MELGQAMVTVAGIGCRKGAASDAIIAAVRAAERAFGVTVDYLATAPLKADEAGLAEAAKGLSLSLEIVAQERLEAVAAETMTFSQASLDHSGSPSVSEAAALAAAGAGARLVAPRLVVGDVTVAIAMTSDAPHGSRSAIEYGEQE” the “soluble on expression in E. coli” value was “not soluble”.
For “MSLNSSFFKMMEKRSYNRFNQEQKAAITYDMKKHLRIIAGAGSGKTQTICAKAVYLMTQKQVDEERILMITFTRNAANELKKRVDNFSQRKTAVHIGTFHSIFFRIYNEICRKFPEVAMQGIQGDFSKDTAQKVNAVLQQLIRKYNLYIFDQYGEKTIASRLDYWQNMNLSVEEMVQLVKEKYDSIDKNARQPISERLYGLLTELQEQKRSQQLLEFNDVLQNLKSALENEEIQHYIGQKYDYLFIDEFQDTNPLQWEIVKRMTKENRIKLIVVGDDDQSIYGFRGSEPAYIKNFEKEYPTKTLFLLTNYRSRAAIVQGANRLISYNKNDRIPKAMIPAQKEAGVMEAYLFSDTKAESQWLIKQIQTFIQKNGKYKESIILYRSASQTQQLVQSLLKTNIPFVLEADSPYEGIFGIKSFQHFYQKIVHWQTALNLQKKNQAYQQLLRQLMADCYLKKSECDQYFSPKYQNIAVADYILSISPNLKSKSAEIREFEEALRKTDQHQEIYSLVQSYLHLPRIAKEIDQSDQEWIREEVKQHATFRRLQALSQETQATAKELKTREGHHHHHH”, the “soluble on expression in E. coli” value was “not soluble”.
With “MGSDKIHHHHHHNEMTEMNPDTNRTIGLDVYTEVQTRGTETTTSTLKANAGFGIFAYQTSSAGWNSEKGNTTPNFMYNEHATWTSDSWGYTNLRFWPIDDKKITFFAYAPYESKPEVGTDQKITLSGQNAKGAPTITFEVKTSNNWKDMIDLVTDCHTAIQDQTNESNKGTVQFKFSHVLTQIANIKVKPDVNLGTDTKIFVTGLKLDPGSTTLYNKAVYKFDNDTWEAISPDASYFSTEQDLSDFLNKTTTDQWGYNKSSINVSDDQNATALFSDTEALYFIPVNNKNGTTNAGDLKLKINYDIVTKVTDTSNLTSTITNKEVSLPKNTFKKGTKHTYVLTIKMNAIKITVEDNMEGWTDDSDSDINVEK” the “soluble on expression in E. coli” value was “not soluble”.
For “MKYFEFTFHTSPCTETVNDVLAAVLGEAGFESFVESEGGLTAYIQQALCDENTIKNAITEFPLPDTEITYTYVEAEDKDWNEEWEKNFFQPIVIDNRCVIHSTFHKDVPQATYDIVINPQMAFGTGHHETTSLIIGELLDNELKDKSLLDMGCGTSILAILARMRGARPCIAIDIDEWCVRNSIENIELNHVDDIAVSQGDASSLVGKGPFDIIIANINRNILLNDMKQYVACMHPGSELYMSGFYVDDIPFIRREAEKNGLTFVHHKEKNRWAAVKFTY”, the “soluble on expression in E. coli” value was “not soluble”.
With “MAHHHHHHMLLVGFKPCEIVFLVDTLLGSGVSRLPQLFSFFFGGGVHSCARQRKSRKGFAPPNWHPLPRPRRLTAFPYHSQVVAHKRVVRRLLTINNLVFNCCGNLFLPICTLHPKFPFTNDLSQYVVTCEFPPLQLHFSTQAPKNCFRKQLDLVLCSINVAVDVFHPALLRTFRWIC” the “soluble on expression in E. coli” value was “soluble”.
In the case of “AVKILEIEDLFSSLKHIQHTLVDSQSQEDISLLLQLVQNKDFQNAFKIHNAITVHMNKAS”, the “soluble on expression in E. coli” value was “soluble”.
With “MMGSSSQELQTALTDVSKTCHHLWEENKDLQGRFVNELGELQRLQMVIAQLEQQQRLENVFTVKQQMTELQKRAATLYEHLTQKRNDIVIKLNDGTNFATMLQTQLIGEKLFSWKNAQKLAQIGMPFDNREQLLDEIQIEFEFLADQNWQLNMFSCWMLDLLRRAPQLNDGLAQATIGKLTAITEQLNKLLFMLVSQSFIVSVQPEPVLKTQHKFVTEVRLLIGDKLGIRQHLVNTNVSVKIIAEDEAKQLSVDYDAHKEIRNNKTVGTISNDFEKLTMNERGHLAAKFNNSKLTRIAHRKPPPKGASDLKCAASMQAATDQKYALLFFITPFQMGNLSKEEQFDVWTLSLPIMVTVHGSQDCDAQVAILWHRAFASISRNPNTTDVTAVTWDNLAIMLRNKFSLFTGARRPLSDSDLAYLSEKMLMPNVADQKPITFHRFAKQAMRDDLPFSFWEWFFSIMQLIKQKLLKFWDEGWCIGFISKNDASQSMMMCQHSSFLLRFSDSQTGAVSIGFVCEEADGQKIPFHLAPFTIKDLDQLSLASRIASCPQLKDIRYMYPAIDKEEMLRFFESEERHRVGGGDSPTGYIQSEIVMVAKTNGNFRRMSNAPSMFGADSPSPLSVQSKLDWSPGEVHQNHMMEMSDELGQILTVSDMSGDVETLLGPAFKNNITNYNPHDGNHQHNLHFVDMSQQGMMQQHHNQFYPS” the “soluble on expression in E. coli” value was “not soluble”.
For “MSKISSVLIDLSGTIHIEEFAIPGAQTALELLRQHAKVKFVTNTTKESKRLLHQRLINCGFKVEKEEIFTSLTAARDLIVKNQYRPFFIVDDRAMEDFEGISTDDPNAVVIGLAPEKFNDTTLTHAFRLIKEKKASLIAINKGRYHQTNAGLCLGPGTYVAGLEYSAGVEATIVGKPNKLFFESALQSLNENVDFSSAVMIGDDVNDDALGAIKIGMRAILVKTGKFRDGDELKVKNVANSFVDAVNMIIENKVENG”, the “soluble on expression in E. coli” value was “not soluble”.
With “MGSDKIHHHHHHMIERIYLAKPRGFCAGVVMAIQAVEKAAVREDKPVTVYHSIVHNHTVVERLSEGGRVHFVEDLDAVDALPDSGDTVIFSAHGISPAVRERARSLGLSTIDATCPLVTKVHTEAKKYAREGYTILLIGDSAGHQEVIGTRGEAPENTILVGVLGKTGPGLNDPHAVQVPDPERLVVLTQTTLSVDDTRKTVDILKARFPALVVPPSEDLCYATKNRQDAVKNIAPNVDAFLVLTSTHSSNGMRLLELAEAECGRAYRLETAADLTRLEQNGDLGGVRSVGITSAASTPDDLVQDVVAHFRALNPALEVIEEGEWENIEFREPKKIAPTQELPRTMQ” the “soluble on expression in E. coli” value was “not soluble”.
With “MGSDKIHHHHHHMTIWVRNGNNAATEQEISAKETELGLFLPAEYKELLLKQNGGLIRKNHFPTNEPTSYGLDVAEIYYLASLNELLTDIPEQNDVDLAGKQVYFHRDESRYIGFSYADNKSLPSIIYVDFETLQTLVVAENMAEFLEALYFSPFPVDFAEQFPVKKLDQILASSNVKKTKQLLELLEDYPDKKWYLETLIRLLQKNEIPYNIVVYQSFENQLLYFRRKLVPELVEKIFAMLKDCDGIDQSATTELYKEWE” the “soluble on expression in E. coli” value was “not soluble”.
In the case of “VFLPTNAQYQLLVVGVSPWDTPSPSGRISWGSAWPHQARRAQTCQRVRRHWMIDTTEAAYRLTYQPDGTSITVRENLVDILARELLGPIRGPQEVLPFSPRSQYLVGHLAPVKLTGAALIDDNAVQARANAEALAEGGGVPAYAADETTPTPTTTPKTAHPSRA”, the “soluble on expression in E. coli” value was “not soluble”.
In the case of “LGSLLEVAIPKPGNVSRYKDFEDLTFYHFLFGNTALIGPYFEATERGILLKEGKINESEVGIGELIRMAVAATKKYQDANPNFGIIVLSIPLIVSLSSGASIEDAGKMATRLISKSTPLDTVELYKAIRIANPKGIPRGVKYDVYSDTSFEDLVRDGINLYKLAEISCERELVFCEWLNNYDLTYETLKLLENNLEKEDLEGKVRKTFVVLLSKYEDTLIIRKAGIQEAKKVKEMATQLLKNKITEEEFERFMYEKRDLRNPGSLADIMATAL”, the “soluble on expression in E. coli” value was “not soluble”.
With “MEVKELERDKNRVVLEYVFGAEEIAQAEDKAVRYLNQRVEIPGFRKGRIPKNVLKMKLGEEFQEYTLDFLMDLIPDTLKDRKLILSPIVTERELKDVTARVVVEVHEEPEVRIGDISKIEVEKVDEEKVLEKYVERRIEDLRESHALLEPKEGPAEAGDLVRVNMEVYNEEGKKLTSREYEYVISEDEDRPFVKDLVGKKKGDVVEIEREYEGKKYTYKLEVEEVYKRTLPEIGDELAKSVNNEFETLEQLKESLKKEGKEIYDVEMKESMREQLLEKLPEIVEIEISDRTLEILVNEAINRLKREGRYEQIVSSYESEEKFREELKERILDDIKRDRVIEVLAQEKGISVNDEELEKEAEELAPFWGISPDRAKSLVKARQDLREELRWAILKRKVLDLLLQEVKVKVVEPKGEGDDSEGKEDNLEHHHHHH” the “soluble on expression in E. coli” value was “soluble”.
